One block for each binder: values may come before it.
Assays:
[1] = target: T1, LAG-3(NCBI登录号:NP_002277.4)全长, HEK293细胞表面 (human, UniProt P18627 23-525); assay: flow cytometry on HEK293 cells transfected with full-length LAG-3
T1 construct: whole, on cells; also called HEK293-LAG-3; 细胞表面LAG-3
T1 sequence (looked up): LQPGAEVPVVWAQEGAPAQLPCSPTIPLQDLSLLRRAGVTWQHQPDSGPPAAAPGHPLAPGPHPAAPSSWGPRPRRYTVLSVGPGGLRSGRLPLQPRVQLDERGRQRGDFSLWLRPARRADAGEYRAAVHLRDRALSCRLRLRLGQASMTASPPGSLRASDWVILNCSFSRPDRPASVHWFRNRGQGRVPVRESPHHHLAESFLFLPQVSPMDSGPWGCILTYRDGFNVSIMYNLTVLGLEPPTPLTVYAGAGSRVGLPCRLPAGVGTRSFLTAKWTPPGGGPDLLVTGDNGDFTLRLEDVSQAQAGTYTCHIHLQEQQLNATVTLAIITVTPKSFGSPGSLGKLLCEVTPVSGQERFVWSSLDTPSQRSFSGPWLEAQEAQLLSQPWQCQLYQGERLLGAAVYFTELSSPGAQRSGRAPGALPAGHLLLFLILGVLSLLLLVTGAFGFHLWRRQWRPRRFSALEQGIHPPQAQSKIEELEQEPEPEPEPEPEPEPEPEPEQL

[2] = target: T2, 人LAG-3胞外区融合蛋白(义翘神州，Cat:16498-H08H) (human, UniProt P18627 23-450); assay: SPR (Reichert 4SPR), antibody captured by anti-human Fc, antigen in flow
T2 construct: extracellular domain; also called 人重组蛋白LAG-3; 人LAG-3重组蛋白
T2 sequence (looked up): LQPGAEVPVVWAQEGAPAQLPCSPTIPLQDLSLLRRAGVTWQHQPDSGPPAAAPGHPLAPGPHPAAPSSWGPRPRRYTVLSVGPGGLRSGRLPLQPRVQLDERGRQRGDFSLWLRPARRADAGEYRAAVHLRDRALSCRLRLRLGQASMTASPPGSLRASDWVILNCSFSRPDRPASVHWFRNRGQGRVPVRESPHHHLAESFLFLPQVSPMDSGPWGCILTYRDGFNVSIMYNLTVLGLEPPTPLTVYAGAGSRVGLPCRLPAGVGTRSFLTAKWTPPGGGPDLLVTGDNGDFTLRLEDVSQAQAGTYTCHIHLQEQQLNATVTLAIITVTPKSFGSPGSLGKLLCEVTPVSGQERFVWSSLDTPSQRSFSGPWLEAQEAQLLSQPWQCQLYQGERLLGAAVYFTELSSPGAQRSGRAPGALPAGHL

[3] = target: T3, LAG-3-OFP(NCBI登录号:NP_002277.4) on HEK293细胞 (human, UniProt P18627 23-525); assay: flow cytometry, double-positive cells (CFSE-labelled CHO-PD-L1-CD3L with HEK-293-LAG3-OFP)
T3 construct: whole, on cells; also called HEK-293-LAG3-OFP; HEK293-LAG-3
T3 sequence (looked up): T1 sequence (looked up)

[4] = target: T4, 人PD-L1 on CHO-PD-L1-CD3L细胞 (human, UniProt Q9NZQ7 19-290); assay: as above
T4 construct: whole, on cells; also called 高表达人PD-L1的CHO细胞
T4 sequence (Q9NZQ7 19-290): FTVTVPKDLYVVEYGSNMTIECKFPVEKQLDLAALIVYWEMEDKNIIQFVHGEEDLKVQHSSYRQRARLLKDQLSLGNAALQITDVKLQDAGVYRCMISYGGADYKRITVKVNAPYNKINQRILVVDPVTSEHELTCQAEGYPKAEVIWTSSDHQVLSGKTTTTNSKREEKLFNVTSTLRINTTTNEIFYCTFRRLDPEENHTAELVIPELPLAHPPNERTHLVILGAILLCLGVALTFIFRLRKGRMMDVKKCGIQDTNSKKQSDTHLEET

肿瘤细胞MBA-MD-231细胞表面的PD-L1 = target: T5, 肿瘤细胞MBA-MD-231细胞表面的PD-L1 (UniProt Q9NZQ7 19-290, limits assumed); assay: flow cytometry on MBA-MD-231 tumour cells
T5 construct: whole, on cells; also called 细胞表面PD-L1
T5 sequence (Q9NZQ7 19-290 limits assumed): as the sequence (Q9NZQ7 19-290) above

[5] = target: T6, 鼠重组蛋白LAG-3(Cat:53069-M08H，北京义翘神州科技股份有限公司) (mouse, UniProt Q61790 24-442); assay: ELISA, antigen coated at 1 μg/mL
T6 construct: also called 小鼠LAG-3; 鼠LAG-3
T6 sequence (looked up): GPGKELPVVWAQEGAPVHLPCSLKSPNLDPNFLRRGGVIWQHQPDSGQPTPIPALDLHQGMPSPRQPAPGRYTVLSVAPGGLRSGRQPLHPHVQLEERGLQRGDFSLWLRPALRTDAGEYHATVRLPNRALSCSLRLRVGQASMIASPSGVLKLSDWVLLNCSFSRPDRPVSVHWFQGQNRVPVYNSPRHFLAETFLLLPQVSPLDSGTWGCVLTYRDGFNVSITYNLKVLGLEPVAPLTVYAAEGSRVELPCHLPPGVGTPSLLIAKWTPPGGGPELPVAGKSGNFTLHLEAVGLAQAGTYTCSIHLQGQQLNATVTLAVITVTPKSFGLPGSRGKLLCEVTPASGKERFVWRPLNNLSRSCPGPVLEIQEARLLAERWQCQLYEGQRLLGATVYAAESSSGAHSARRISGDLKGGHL

[6] = target: T7, 鼠PD-L1(Cat:50010-M08H，北京义翘神州科技股份有限公司) (mouse, UniProt Q9EP73 19-238); assay: ELISA, antigen coated at 1 μg/mL
T7 construct: also called 小鼠PD-L1
T7 sequence (Q9EP73 19-238 limits assumed, stated change not applied): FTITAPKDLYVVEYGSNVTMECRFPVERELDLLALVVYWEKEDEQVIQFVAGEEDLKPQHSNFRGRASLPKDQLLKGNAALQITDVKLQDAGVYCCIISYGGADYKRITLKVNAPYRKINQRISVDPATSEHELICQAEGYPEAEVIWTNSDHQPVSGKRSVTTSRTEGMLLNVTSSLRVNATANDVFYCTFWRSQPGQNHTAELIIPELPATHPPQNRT

binding result [1]: binds | binding result [2]: binds
B1: 人源化抗体hz7F10 (antibody, human IgG1, kappa, L234A L235A, V domains shown)
VH: EVQLVQSGAEVKKPGASVKVSCKASGVNIKDDYMHWVRQAPGQGLEWIGRIDPEDVETKYDPKFQGRVTITADTSTSTAYMELSSLRSEDTAVYYCARSFYSNYVNYFDQWGQGTLVTVSS
VL: DIQMTQSPSSLSASVGDRVTITCKASENVGTYVSWFQQKPGKAPKLLIYGASNRYTGVPSRFSGSGSGTDFTLTISSLQPEDFATYYCGQSYSYPYTFGQGTKLEIKR
notes: Humanised from mouse antibody 7F10; also called 裸抗体hz7F10; 抗LAG-3抗体hz7F10

binding result [1]: binds | binding result [3]: binds | binding result [4]: binds | binding result (肿瘤细胞MBA-MD-231细胞表面的PD-L1): binds | binding result [2]: binds | binding result [5]: no binding (tested: 1μg/mL) | binding result [6]: no binding (tested: 1μg/mL)
B2: hz7F10-hzB6 (bispecific antibody, human IgG1, kappa, L234A L235A)
heavy: not shown
light: DIQMTQSPSSLSASVGDRVTITCKASENVGTYVSWFQQKPGKAPKLLIYGASNRYTGVPSRFSGSGSGTDFTLTISSLQPEDFATYYCGQSYSYPYTFGQGTKLEIKRTVAAPSVFIFPPSDEQLKSGTASVVCLLNNFYPREAKVQWKVDNALQSGNSQESVTEQDSKDSTYSLSSTLTLSKADYEKHKVYACEVTHQGLSSPVTKSFNRGEC
notes: Expressed transiently in HEK293 cells; also called 抗人LAG-3/PD-L1双特异抗体; LAG-3/PD-L1双特异抗体

binding result [1]: binds | binding result (肿瘤细胞MBA-MD-231细胞表面的PD-L1): binds | binding result [2]: binds | binding result [5]: no binding (tested: 1μg/mL) | binding result [6]: no binding (tested: 1μg/mL)
B3: hz7F10-hzF2 (bispecific antibody, human IgG1, kappa, L234A L235A)
heavy: not shown
light: B2 light
notes: as for B2

binding result [5]: no binding (tested: 1μg/mL)
B4: 对照抗体BMS-986016 (antibody, human IgG4 S228P, kappa, V domains shown)
VH: QVQLQQWGAGLLKPSETLSLTCAVYGGSFSDYYWNWIRQPPGKGLEWIGEINHRGSTNSNPSLKSRVTLSLDTSKNQFSLKLRSVTAADTAVYYCAFGYSDYEYNWFDPWGQGTLVTVSS
VL: EIVLTQSPATLSLSPGERATLSCRASQSISSYLAWYQQKPGQAPRLLIYDASNRATGIPARFSGSGSGTDFTLTISSLEPEDFAVYYCQQRSNWPLTFGQGTNLEIKR

Reference: patent CN115505045A (MABWELL SHANGHAI BIOSCIENCE CO LTD, dated 2022)
